Assay [1] has as its target T1, catalytic domain of human MMP-14 (cdMMP-14) (human, UniProt P50281 114-320).
T1 construct: range 114-320; Produced active in E. coli periplasm; biotinylated for BLI/ELISA
The assay is described as follows: bio-layer interferometry; reference cdMMP-12 wt. For orientation: In BLI a coated tip is dipped into the sample, and binding shifts an interference pattern.

The target in assay [2] is human MMP-12 catalytic domain mutant D4 (cdMMP-12 D4) (human). The experiment in a line: cell-based or functional assay.
The target of assay [3] is T2, human MMP-12 catalytic domain wild type (cdMMP-12 wt) (human, UniProt P39900 106-263). The experiment in a line: cell-based or functional assay.
T2 sequence (P39900 other isoform, or with tags, fused parts or gaps limits assumed): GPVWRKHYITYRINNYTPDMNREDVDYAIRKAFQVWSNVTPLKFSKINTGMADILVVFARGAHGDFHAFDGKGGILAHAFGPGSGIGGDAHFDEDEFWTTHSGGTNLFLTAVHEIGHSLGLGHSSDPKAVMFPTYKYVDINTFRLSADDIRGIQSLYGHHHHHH
Assay [4] concerns the target T2, human MMP-12 catalytic domain wild type …. The assay is described as follows: bio-layer interferometry (ForteBio BLItz), biotinylated cdMMP-12 wt on streptavidin biosensor, Fab at 50, 100 and 200 nM [panel B, LH6].
Procedure: (§1) On streptavidin coated ELISA plates, 5 μg/mL biotinylated cdMMPs were immobilized and incubated with two-fold serially diluted purified Fabs. Bound Fabs were detected with anti-Fab-HRP (Sigma-Aldrich), and signals were developed by TMB substrate (Thermo Scientific) and measured using a microplate reader (BioTek). […] Bound Fabs were detected using anti-Fab-HRP. For bio-layer interferometry (using ForteBio BLItz), biotinylated cdMMP-12 D4/wt was loaded onto streptavidin biosensors. After washing to establish baselines, 50, 100, or 200 nM of Fabs were associated with immobilized cdMMP-12 D4/wt for 200 sec, then dissociated into 50 mM HEPES, 150 mM NaCl pH 7.5 for 120 sec. Averages of measured kₒₙ and koff values were determined for KD calculations.
Assay [5] addresses T1, catalytic domain of human MMP-14 …. The experiment in a line: FRET peptide inhibition assay.
Procedure: (§2) To calculate inhibition constants (KIs), data were fit with the equations for slow tight-binding inhibitors. The inhibition type of the Fabs was determined using the initial velocities of cdMMP-12 D4 as a function of substrate concentration (250-2000 nM) at various Fab concentrations (31-500 nM). The values of Vₘₐₓ and Kₘ were derived from linearization in accordance with the Lineweaver-Burk equation.
Assay [6] has the same target. The assay is described as follows: FRET peptide inhibition assay; reference cdMMP-12 mutant D4.
Procedure: as §2
Assay [7] deals with T3, human MMP-12 catalytic domain mutant D4 (cdMMP-12 D4) (human).
T3 construct: PROSS-designed expression-optimised mutant; Cytoplasmically expressed in E. coli, purified on Ni-NTA; biotinylated for ELISA/BLI; also called cdMMP-12 mutant D4; modified D4
T3 sequence (chain, as listed by the source mutant limits assumed): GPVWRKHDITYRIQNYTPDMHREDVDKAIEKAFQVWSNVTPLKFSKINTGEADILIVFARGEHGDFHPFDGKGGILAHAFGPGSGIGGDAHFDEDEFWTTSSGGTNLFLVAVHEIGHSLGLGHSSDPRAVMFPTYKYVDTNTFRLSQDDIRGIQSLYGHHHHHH
The experiment in a line: direct ELISA; biotinylated cdMMP on streptavidin plate, Fab titrated, anti-Fab-HRP. A general note: An ELISA detects its analyte on a solid surface through an enzyme-linked reagent.
Procedure: as §1

For assay [8], the target named is T2, human MMP-12 catalytic domain wild type …. Described as above.
Procedure: as §1
In assay [9] the target is T3, human MMP-12 catalytic domain mutant D4 …. The experiment in a line: bio-layer interferometry (BLItz); biotinylated cdMMP-12 on streptavidin sensor, 50/100/200 nM Fab.
Procedure: as §1
The target of assay [10] is T2, human MMP-12 catalytic domain wild type …. The assay is described as above.
Procedure: as §1
In assay [11] the target is T1, catalytic domain of human MMP-14 …. The assay is described as follows: bio-layer interferometry.
For assay [12], the target named is T3, human MMP-12 catalytic domain mutant D4 …. The assay is described as follows: FRET peptide (M-2350) inhibition assay.
Procedure: as §2
Assay [13] has the same target. The assay is described as follows: bio-layer interferometry (ForteBio BLItz), biotinylated cdMMP-12 D4 on streptavidin biosensor, Fab at 50, 100 and 200 nM [panel A, LH6].
Procedure: as §1
For assay [14], the target named is T1, catalytic domain of human MMP-14 …. The experiment in a line: biolayer interferometry; biotinylated protease on streptavidin sensor, Fab in solution.
Procedure: (§3) Binding kinetics of produced antibodies towards associated protease targets were analyzed by using biolayer interferometry (ForteBio). For Fabs, biotinylated proteases were immobilized on streptavidin biosensors, and Fab binding to the sensors in absence of protease was monitored as backgrounds.
The target is the same in assay [15]. The experiment in a line: FRET peptide inhibition assay; KI=IC50/(S/Km+1).
Procedure: (§4) For inhibition tests, 1 μM Fabs were 2-fold serially diluted into protease specific assay buffer and incubated with 1-10 nM proteases for 30 min at room temperature. […] Inhibition percentages at given concentrations were calculated by comparing the initial reaction rates in the presence or absence of inhibitor. […] Vₘₐₓ and Kₘ at various Fab concentrations were measured to determine the inhibition type. FRET inhibition assays were also used for selectivity tests of isolated Fabs with the relevant proteases.
Assay [16] has the same target. The assay is described as follows: enzyme inhibition assay with FRET peptide substrate (M-2350), Fab titrated on cdMMP-14 [panel 2B4].
Procedure: as §4
Assay [17] has the same target. The assay is described as follows: bio-layer interferometry (ForteBio), biotinylated protease on streptavidin biosensor, Fab in solution [panel 2B4].
Procedure: as §3
For assay [18], the target named is human β-secretase 1 (BACE1), extracellular/catalytic domain (human, UniProt P56817 46-457, limits assumed). The assay is described as follows: cell-based or functional assay.
Sequence of human β-secretase 1 (BACE1), extracellular/catalytic domain (P56817 46-457 limits assumed, form in doubt): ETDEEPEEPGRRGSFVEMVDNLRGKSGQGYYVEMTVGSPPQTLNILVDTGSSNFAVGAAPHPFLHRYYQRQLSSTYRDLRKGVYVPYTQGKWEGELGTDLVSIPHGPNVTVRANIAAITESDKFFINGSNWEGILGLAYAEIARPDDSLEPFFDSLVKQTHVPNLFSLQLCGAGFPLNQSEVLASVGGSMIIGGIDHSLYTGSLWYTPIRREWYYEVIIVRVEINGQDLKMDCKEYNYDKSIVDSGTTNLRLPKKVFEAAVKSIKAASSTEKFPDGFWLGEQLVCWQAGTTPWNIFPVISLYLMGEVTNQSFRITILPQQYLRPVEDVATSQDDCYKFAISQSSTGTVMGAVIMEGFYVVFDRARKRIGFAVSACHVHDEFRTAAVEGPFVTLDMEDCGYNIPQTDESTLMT
In assay [19] the target is T2, human MMP-12 catalytic domain wild type …. The assay is described as follows: bio-layer interferometry (ForteBio BLItz), biotinylated cdMMP-12 wt on streptavidin biosensor, Fab at 50, 100 and 200 nM [panel B, LH11].
Procedure: as §1
The target of assay [20] is T3, human MMP-12 catalytic domain mutant D4 …. The experiment in a line: bio-layer interferometry (ForteBio BLItz), biotinylated cdMMP-12 D4 on streptavidin biosensor, Fab at 50, 100 and 200 nM [panel A, LH11].
Procedure: as §1
Assay [21] concerns the target T1, catalytic domain of human MMP-14 …. The assay is described as follows: bio-layer interferometry (ForteBio), biotinylated protease on streptavidin biosensor, Fab in solution [panel 1A5].
Procedure: as §3
The target is the same in assay [22]. The experiment in a line: enzyme inhibition assay with FRET peptide substrate (M-2350), Fab titrated on cdMMP-14 [panel 1A5].
Procedure: as §4
Assay [23] shares this target. The experiment in a line: enzyme inhibition assay with FRET peptide substrate (M-2350), Fab titrated on cdMMP-14 [panel 2B12].
Procedure: as §4
The target is the same in assay [24]. The experiment in a line: bio-layer interferometry (ForteBio), biotinylated protease on streptavidin biosensor, Fab in solution [panel 2B12].
Procedure: as §3
Assay [25] deals with T2, human MMP-12 catalytic domain wild type …. The experiment in a line: bio-layer interferometry (ForteBio BLItz), biotinylated cdMMP-12 wt on streptavidin biosensor, Fab at 50, 100 and 200 nM [panel B, LG4].
Procedure: as §1
Assay [26] concerns the target T3, human MMP-12 catalytic domain mutant D4 …. The assay is described as follows: bio-layer interferometry (ForteBio BLItz), biotinylated cdMMP-12 D4 on streptavidin biosensor, Fab at 50, 100 and 200 nM [panel A, LG4].
Procedure: as §1

Substitutions are numbered along the chain they refer to.

B1: anti-MMP-12 Fab LH6 (Fab, V domains shown)
VH: EVQLVESGGGLVQPGGSLRLSCAASGFNLSYSYMHWVRQAPGKGLEWVASIYPSYGSTYYADSVKGRFTISADTSKNTAYLQMNSLRAEDTAVYYCARDLEESLPKRARTAVSKELESVPYVMDYWGQGTLVTVSS
VL: DIQMTQSPSSLSASVGDRVTITCRASQSVSSAVAWYQQKPGKAPKLLIYSASSLYSGVPSRFSGSRSGTDFTLTISSLQPEDFATYYCQQSSHYASPPITFGQGTKVEIKR
notes: Fab from a synthetic human Fab library with long CDR-H3s, produced in E. coli periplasm; also called Clone LH6
Regarding B1, the “fold (KD compared with cdMMP-12 wt)” value in [1] stood at 1.1 fold. The “Inhibition, Elastin-FITC IC50” value in [2] was determined as 61 nM; in assay [3], 1700 nM. Besides, the koff in [4] came to 0.0065 s⁻¹; in [13], 0.011 s⁻¹. In addition, the kon turned out to be 15000 M⁻¹ s⁻¹ in [4] and 22000 M⁻¹ s⁻¹ in assay [13]. In addition, the Ki in assay [5] was 4700 nM; in [12], 91 nM. For the same molecule, the “fold (KI compared with cdMMP-12 mutant D4)” value in assay [6] was found to be 52 fold. For the same molecule, the EC50 in assay [7] is 290 nM; in assay [8] it was about 1000 nM. The Kd came out at 510 nM in assay [9], 430 nM in assay [10] and 480 nM in [11].

B2: anti-MMP-14 Fab 2B4 (Fab, V domains shown)
VH: EVQLVESGGGLVQPGGSLRLSCAASGFNLYSSYIHWVRQAPGKGLEWVASIYSSYSSTYYADSVKGRFTISADTSKNTAYLQMNSLRAEDTAVYYCARSDSAVYSVRRMGSSGLAAYAMDYWGQGTLVTVSS
VL: B1 VL with S91Y, H93Y, Y94G, A95Y, P97S, P98L
notes: Fab from a synthetic human Fab library, produced in E. coli periplasm; also called Clone 2B4
In turn, B2 displayed a Kd in assay [14] of 66 nM. Also, the Ki in [15] amounted to 98 nM. The same molecule gave an IC50 in assay [16] of 110 nM. In assay [17], this molecule registered a koff of 0.00079 s⁻¹ and an on-rate constant (kon) of 12000 M⁻¹ s⁻¹.

B3: anti-BACE1 IgG B2B2 (antibody, V domains shown)
VH: EVQLVESGGGLVQPGGSLRLSCAASGFNISSYYMHWVRQAPGKGLEWVASIYSSYGYTYYADSVKGRFTISADTSKNTAYLQMNSLRAEDTAVYYCARYWGYYAWFGSHPWAYGAFDYWGQGTLVTVSS
VL: DIQMTQSPSSLSASVGDRVTITCRASQSVSSAVAWYQQKPGKAPKLLIYSASSLYSGVPSRFSGSRSGTDFTLTISSLQPEDFATYYCQQYGYYLITFGQGTKVEIKR
Regarding B3, in assay [18], the “apparent IC50 of Aβ40 production, HEK293 cells expressing APP” value came to 330 nM.

B4: anti-MMP-12 Fab LH11 (Fab, V domains shown)
VH: EVQLVESGGGLVQPGGSLRLSCAASGFNLSYYSMHWVRQAPGKGLEWVAYIYPYYGSTYYADSVKGRFTISADTSKNTAYLQMNSLRAEDTAVYYCARFLLSIGKLFVGDGSILHVWL
VL: DIQMTQSPSSLSASVGDRVTITCRASQSVSSAVAWYQQKPGKAPKLLIYSASSLYSGVPSRFSGSRSGTDFTLTISSLQPEDFATYYCQQAYYGYLFTFGQGTKVEIKR
notes: Fab from a synthetic human Fab library with long CDR-H3s, produced in E. coli periplasm; also called Clone LH11
B4: the “fold (KD compared with cdMMP-12 wt)” value in [1] is 10 fold. Moreover, the “Inhibition, Elastin-FITC IC50” value amounted to 18 nM in [2] and 23 nM in assay [3]. Further, the “Inhibition, Fibronectin IC50” value in [3] worked out at 510 nM. Also, the koff in assay [19] came to 0.0032 s⁻¹; in assay [20], 0.0035 s⁻¹. The results for the kon in assay [19] and in [20] were 43000 M⁻¹ s⁻¹ and 92000 M⁻¹ s⁻¹, respectively. Besides, the Ki was found to be 9600 nM in [5] and 75 nM in assay [12]. Moreover, in assay [6], the “fold (KI compared with cdMMP-12 mutant D4)” value is 130 fold. For the same molecule, the EC50 came to 100 nM in [7] and 140 nM in assay [8]. In addition, the Kd in [9] was 38 nM; in assay [10] it was 75 nM; in assay [11] it was 780 nM.

B5: anti-MMP-14 Fab 1A5 (Fab, V domains shown)
VH: EVQLVESGGGLVQPGGSLRLSCAASGFNLYYYYMHWVRQAPGKGLEWVAYIYPYSGSTYYADSVKGRFTISADTSKNTAYLQMNSLRAEDTAVYYCARLDFLMRDIYYDLGGGALGWLIKYAMDYWGQGTLVTVSS
VL: B4 VL with A91Y, Y92S, Y93G, G94P, L96P, F97I
notes: Fab from a synthetic human Fab library, produced in E. coli periplasm; also called Clone 1A5
In assay [14], B5 showed a Kd of 57 nM. This molecule also gave a Ki in assay [15] of 150 nM. In [21], this molecule showed an off-rate (koff) of 0.0025 s⁻¹ and a kon of 44000 M⁻¹ s⁻¹. Half-maximal inhibition in assay [22] (IC50) was put at 170 nM.

B6: anti-MMP-14 Fab 2B12 (Fab, V domains shown)
VH: EVQLVESGGGLVQPGGSLRLSCAASGFNIYYSSMHWVRQAPGKGLEWVAYIYSSSSYTYYADSVKGRFTISADTSKNTAYLQMNSLRAEDTAVYYCARDCCSCVFSQSAGITLACVYVMDYWGQGTLVTVSS
VL: DIQMTQSPSSLSASVGDRVTITCRASQSVSSAVAWYQQKPGKAPKLLIYSASSLYSGVPSRFSGSRSGTDFTLTISSLQPEDFATYYCQQWGPHYAPITFGQGTKVEIKR
notes: Fab from a synthetic human Fab library, produced in E. coli periplasm; also called Clone 2B12
For the molecule B6, the Kd in [14] came out at 76 nM. Moreover, in [15], affinity was put at a Ki of 120 nM. The molecule further yielded a 50% inhibitory concentration (IC50) in assay [23] of 140 nM. Also, in assay [24], the koff stood at 0.0053 s⁻¹ and the kon is 70000 M⁻¹ s⁻¹.

B7: anti-MMP-12 Fab LG4 (Fab, V domains shown)
VH: EVQLVESGGGLVQPGGSLRLSCAASGFNLYYSYMHWVRQAPGKGLEWVASISSYYGYTSYADSVKGRFTISADTSKNTAYLQMNSLRAEDTAVYYCARSPIVYYELFMFIDMGAQGWKYGMDYWGQGTLVTVSS
VL: DIQMTQSPSSLSASVGDRVTITCRASQSVSSAVAWYQQKPGKAPKLLIYSASSLYSGVPSRFSGSRSGTDFTLTISSLQPEDFATYYCQQTFYPFTFGQGTKVEIKR
notes: Fab from a synthetic human Fab library with long CDR-H3s, produced in E. coli periplasm; also called Clone LG4
In the case of B7, the results for the koff in assay [25] and in [26] were 0.0038 s⁻¹ and 0.0041 s⁻¹, respectively. Besides, the results for the kon in [25] and in [26] were 54000 M⁻¹ s⁻¹ and 110000 M⁻¹ s⁻¹, respectively. For the same molecule, the “fold (KD compared with cdMMP-12 wt)” value in assay [1] was determined as 9 fold. Further, the “Inhibition, Elastin-FITC IC50” value in [2] amounted to 210 nM; in assay [3] it was 350 nM. The EC50 was found to be 97 nM in assay [7] and 180 nM in [8]. In addition, the Kd stood at 37 nM in assay [9], 71 nM in assay [10] and 640 nM in [11]. Moreover, the Ki in [12] was 76 nM.

The term koff denotes a measure of how fast the partners let go of each other. Lower therefore signals a long-lived complex. As usually defined, the kon is a measure of how fast the partners come together. Lower therefore signals slow association. As a reminder, the Ki is the equilibrium dissociation constant of an inhibitor or competing ligand from its target. One may read the EC50 as the concentration that produces a half-maximal response. Usually Kd stands for the free concentration of one partner at which half of the binding sites on the other are occupied at equilibrium, for simple one-to-one binding. Read a high Kd as weaker binding. For orientation: IC50 means the point on the concentration scale where inhibition reaches its midpoint. A higher IC50 goes with lower potency.

Values taken from US20200392251A1 (University of California, published 2020).
